Source: PMC9352680, “A comprehensive thermodynamic model for RNA binding by the Saccharomyces cerevisiae Pumilio protein PUF4”

T1: PUF4 RNA-binding domain (Saccharomyces cerevisiae, UniProt P25339 537-888)
T1 sequence: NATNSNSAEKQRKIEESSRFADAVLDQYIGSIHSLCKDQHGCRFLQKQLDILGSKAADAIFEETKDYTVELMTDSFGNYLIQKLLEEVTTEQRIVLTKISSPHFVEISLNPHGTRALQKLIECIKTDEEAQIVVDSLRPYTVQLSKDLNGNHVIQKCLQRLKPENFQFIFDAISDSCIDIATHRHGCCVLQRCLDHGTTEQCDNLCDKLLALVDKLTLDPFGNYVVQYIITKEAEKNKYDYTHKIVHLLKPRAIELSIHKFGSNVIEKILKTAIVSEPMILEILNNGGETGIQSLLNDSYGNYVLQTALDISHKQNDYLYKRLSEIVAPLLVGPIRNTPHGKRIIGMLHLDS


Target: T1, PUF4 RNA-binding domain
Assay: Mg; RNA-MaP; 20 mM Na-HEPES pH 7.4, 30 mM KOAc, 0.75 mM MgCl2, 0.1% Tween-20, 5% glycerol, 0.1 mg/mL BSA, 2 mM DTT; 25 C; 0.0125-409.6 nM protein
Conditions: tags: N-His6-TEV cleaved; C-SNAP kept, Cy3B-labelled; label: tethered on chip by stalled RNA polymerase

Row | Binder | Kd [nM]
1 | Ib_S4_P4E.1_K4.1_C4.1_H4.1_[T1C]_A4.1_[A6T]_F4.1_T4.1 (ssRNA) RNA: UUUGACAACUGAUCGUUCUUUCUCGUAUUUUAUUCUUUCUCGAUCAGUUGUCUUU | 133
2 | Ia_S4_P4E.1_K4.1_C4.1_H4.1_A4.1_F4.1_[A9G]_T4.1 (ssRNA) RNA: UUUGACAACUGAUCGUUCUUUCUUGUAUAUUGUUCUUUCUCGAUCAGUUGUCUUU | 3.07
3 | Ib_S4_P4E.1_K4.1_C4.1_H4.1_[G2T]_A4.1_[T5C]_F4.1_T4.1 (ssRNA) RNA: UUUGACAACUGAUCGUUCUUUCUUUUACAUUAUUCUUUCUCGAUCAGUUGUCUUU | 356
4 | Ib_S4_P4E.1_K4.1_C4.1_H4.1_[A4C]_A4.1_[T7C]_F4.1_T4.1 (ssRNA) RNA: UUUGACAACUGAUCGUUCUUUCUUGUCUACUAUUCUUUCUCGAUCAGUUGUCUUU | 12.9
5 | Ic_S4_P4E.1_K4.1_C4.1_H4.1_A4.1_[T5C]_[T7A]_F4.1_T4.1 (ssRNA) RNA: UUUGACAACUGAUCGUUCUUUCUUGUACAAUAUUCUUUCUCGAUCAGUUGUCUUU | 0.996
6 | Ib_S4_P4E.1_K4.1_C4.1_H4.1_[A4T]_A4.1_[T5A]_F4.1_T4.1 (ssRNA) RNA: UUUGACAACUGAUCGUUCUUUCUUGUUAAUUAUUCUUUCUCGAUCAGUUGUCUUU | 13.4
7 | Ib_S4_P4E.1_K4.1_C4.1_H4.1_[A4T]_A4.1_[A6G]_F4.1_T4.1 (ssRNA) RNA: UUUGACAACUGAUCGUUCUUUCUUGUUUGUUAUUCUUUCUCGAUCAGUUGUCUUU | 64.1
8 | Ib_S4_P4E.1_K4.1_C4.1_H4.1_A4.1_[A6C]_[T7C]_F4.1_T4.1 (ssRNA) RNA: UUUGACAACUGAUCGUUCUUUCUUGUAUCCUAUUCUUUCUCGAUCAGUUGUCUUU | 3.08
9 | Ib_S4_P4E.1_K4.1_C4.1_H4.1_[A4T]_A4.1_[A6C]_F4.1_T4.1 (ssRNA) RNA: UUUGACAACUGAUCGUUCUUUCUUGUUUCUUAUUCUUUCUCGAUCAGUUGUCUUU | 54.8
10 | Ib_S4_P4E.1_K4.1_C4.1_H4.1_[G2T]_A4.1_[T7A]_F4.1_T4.1 (ssRNA) RNA: UUUGACAACUGAUCGUUCUUUCUUUUAUAAUAUUCUUUCUCGAUCAGUUGUCUUU | 1200
11 | Ib_S4_P4E.1_K4.1_C4.1_H4.1_[A4G]_A4.1_[A6G]_F4.1_T4.1 (ssRNA) RNA: UUUGACAACUGAUCGUUCUUUCUUGUGUGUUAUUCUUUCUCGAUCAGUUGUCUUU | 10.8
12 | Ib_S4_P4E.1_K4.1_C4.1_H4.1_A4.1_[T5G]_[A6C]_F4.1_T4.1 (ssRNA) RNA: UUUGACAACUGAUCGUUCUUUCUUGUAGCUUAUUCUUUCUCGAUCAGUUGUCUUU | 4.82
13 | Ib_S4_P4E.1_K4.1_C4.1_H4.1_[T3C]_A4.1_[T7C]_F4.1_T4.1 (ssRNA) RNA: UUUGACAACUGAUCGUUCUUUCUUGCAUACUAUUCUUUCUCGAUCAGUUGUCUUU | 48.1
14 | Ib_S4_P4E.1_K4.1_C4.1_H4.1_[A4C]_A4.1_[A6T]_F4.1_T4.1 (ssRNA) RNA: UUUGACAACUGAUCGUUCUUUCUUGUCUUUUAUUCUUUCUCGAUCAGUUGUCUUU | 29.8
15 | Ia_S4_P4E.1_K4.1_C4.1_H4.1_[G2C]_A4.1_F4.1_T4.1 (ssRNA) RNA: UUUGACAACUGAUCGUUCUUUCUUCUAUAUUAUUCUUUCUCGAUCAGUUGUCUUU | 227
16 | Ib_S4_P4E.1_K4.1_C4.1_H4.1_[A4T]_A4.1_[T7G]_F4.1_T4.1 (ssRNA) RNA: UUUGACAACUGAUCGUUCUUUCUUGUUUAGUAUUCUUUCUCGAUCAGUUGUCUUU | 30.9
17 | Ib_S4_P4E.1_K4.1_C4.1_H4.1_A4.1_[T5G]_[A6T]_F4.1_T4.1 (ssRNA) RNA: UUUGACAACUGAUCGUUCUUUCUUGUAGUUUAUUCUUUCUCGAUCAGUUGUCUUU | 5.58
18 | Ib_S4_P4E.1_K4.1_C4.1_H4.1_[T1G]_A4.1_[T7A]_F4.1_T4.1 (ssRNA) RNA: UUUGACAACUGAUCGUUCUUUCUGGUAUAAUAUUCUUUCUCGAUCAGUUGUCUUU | 332
19 | Ib_S4_P4E.1_K4.1_C4.1_H4.1_[T1A]_A4.1_[A6T]_F4.1_T4.1 (ssRNA) RNA: UUUGACAACUGAUCGUUCUUUCUAGUAUUUUAUUCUUUCUCGAUCAGUUGUCUUU | 1520

Row | Binder | Kd [nM]
20 | Ib_S4_P4E.1_K4.1_C4.1_H4.1_[G2A]_A4.1_[T7A]_F4.1_T4.1 (ssRNA) RNA: UUUGACAACUGAUCGUUCUUUCUUAUAUAAUAUUCUUUCUCGAUCAGUUGUCUUU | 75.2
21 | Ib_S4_P4E.1_K4.1_C4.1_H4.1_[A4T]_A4.1_[T7C]_F4.1_T4.1 (ssRNA) RNA: UUUGACAACUGAUCGUUCUUUCUUGUUUACUAUUCUUUCUCGAUCAGUUGUCUUU | 7.04
22 | Ib_S4_P4E.1_K4.1_C4.1_H4.1_[G2C]_A4.1_[T7G]_F4.1_T4.1 (ssRNA) RNA: UUUGACAACUGAUCGUUCUUUCUUCUAUAGUAUUCUUUCUCGAUCAGUUGUCUUU | > 2300
23 | Ib_S4_P4E.1_K4.1_C4.1_H4.1_[G2C]_A4.1_[A6C]_F4.1_T4.1 (ssRNA) RNA: UUUGACAACUGAUCGUUCUUUCUUCUAUCUUAUUCUUUCUCGAUCAGUUGUCUUU | > 2300
24 | Ib_S4_P4E.1_K4.1_C4.1_H4.1_A4.1_[T5C]_[A6T]_F4.1_T4.1 (ssRNA) RNA: UUUGACAACUGAUCGUUCUUUCUUGUACUUUAUUCUUUCUCGAUCAGUUGUCUUU | 1.04
25 | Ic_S4_P4E.1_K4.1_C4.1_H4.1_A4.1_[T5C]_[T7G]_F4.1_T4.1 (ssRNA) RNA: UUUGACAACUGAUCGUUCUUUCUUGUACAGUAUUCUUUCUCGAUCAGUUGUCUUU | 1.45
26 | Ib_S4_P4E.1_K4.1_C4.1_H4.1_A4.1_[A6C]_[T7G]_F4.1_T4.1 (ssRNA) RNA: UUUGACAACUGAUCGUUCUUUCUUGUAUCGUAUUCUUUCUCGAUCAGUUGUCUUU | 14.5
27 | Ib_S4_P4E.1_K4.1_C4.1_H4.1_[T3C]_A4.1_[T7A]_F4.1_T4.1 (ssRNA) RNA: UUUGACAACUGAUCGUUCUUUCUUGCAUAAUAUUCUUUCUCGAUCAGUUGUCUUU | 215
28 | Ib_S4_P4E.1_K4.1_C4.1_H4.1_[T3C]_A4.1_[A6T]_F4.1_T4.1 (ssRNA) RNA: UUUGACAACUGAUCGUUCUUUCUUGCAUUUUAUUCUUUCUCGAUCAGUUGUCUUU | 202
29 | Ib_S4_P4E.1_K4.1_C4.1_H4.1_[A4C]_A4.1_[A6G]_F4.1_T4.1 (ssRNA) RNA: UUUGACAACUGAUCGUUCUUUCUUGUCUGUUAUUCUUUCUCGAUCAGUUGUCUUU | 191
30 | Ib_S4_P4E.1_K4.1_C4.1_H4.1_[T3C]_A4.1_[T7G]_F4.1_T4.1 (ssRNA) RNA: UUUGACAACUGAUCGUUCUUUCUUGCAUAGUAUUCUUUCUCGAUCAGUUGUCUUU | 434
31 | Ib_S4_P4E.1_K4.1_C4.1_H4.1_[A4C]_A4.1_[T5A]_F4.1_T4.1 (ssRNA) RNA: UUUGACAACUGAUCGUUCUUUCUUGUCAAUUAUUCUUUCUCGAUCAGUUGUCUUU | 48.4
32 | Ib_S4_P4E.1_K4.1_C4.1_H4.1_[T1A]_A4.1_[A6C]_F4.1_T4.1 (ssRNA) RNA: UUUGACAACUGAUCGUUCUUUCUAGUAUCUUAUUCUUUCUCGAUCAGUUGUCUUU | 2270
33 | Ia_S4_P4E.1_K4.1_C4.1_H4.1_A4.1_F4.1_[T8C]_T4.1 (ssRNA) RNA: UUUGACAACUGAUCGUUCUUUCUUGUAUAUCAUUCUUUCUCGAUCAGUUGUCUUU | 9.03
34 | Ib_S4_P4E.1_K4.1_C4.1_H4.1_[A4C]_A4.1_[A6C]_F4.1_T4.1 (ssRNA) RNA: UUUGACAACUGAUCGUUCUUUCUUGUCUCUUAUUCUUUCUCGAUCAGUUGUCUUU | 110
35 | Ib_S4_P4E.1_K4.1_C4.1_H4.1_A4.1_[T5A]_[T7C]_F4.1_T4.1 (ssRNA) RNA: UUUGACAACUGAUCGUUCUUUCUUGUAAACUAUUCUUUCUCGAUCAGUUGUCUUU | 2.55
36 | Ib_S4_P4E.1_K4.1_C4.1_H4.1_[G2T]_A4.1_[A6C]_F4.1_T4.1 (ssRNA) RNA: UUUGACAACUGAUCGUUCUUUCUUUUAUCUUAUUCUUUCUCGAUCAGUUGUCUUU | > 2300
37 | Ib_S4_P4E.1_K4.1_C4.1_H4.1_[A4C]_A4.1_[T7A]_F4.1_T4.1 (ssRNA) RNA: UUUGACAACUGAUCGUUCUUUCUUGUCUAAUAUUCUUUCUCGAUCAGUUGUCUUU | 19
38 | UCUCUUUGUCUAUAUCUCUU (ssRNA) [Ia_S1_P3E.1_K3.1_C3.1_H3.1_[A4C]_A3.1_F3.1_T3.1] | 1170
